Laboratory results published in the FLAb antibody collection (doi:10.7554/elife.23156).

B1: scFv; the commonest letter at each place (parent)
chain 1: EVKLDETGGGLVQPGRPMKLSCVASGFTFSDYWMNWVRQSPEKGLEWVAQIRNKPYNYETYYSDSVKGRFTISRDDSKSSVYLQMNNLRVEDMGIYYCTGSYYGMDYWGQGTSVTVS
chain 2: DVVMTQTPLSLPVSLGDQASISCRSSQSLVHSNGNTYLRWYLQKPGQSPKVLIYKVSNRFSGVPDRFSGSGSGTDFTLKISRVEAEDLGVYFCSQSTHVPWTFGGGTKLEIK

Key:
fluorescein = variants of: B1; test: Kd (Tite-Seq); settings: with fluorescein; format: scFv 4-4-20, heavy + light
[1] = variants of: B1; test: yeast surface expression (ratio to wild type); higher = more expressed; settings: format: scFv 4-4-20, heavy + light

Variant	Kd (fluorescein)	yeast surface expression [1]
chain 1 EVKLDETGGGLVQPGRPMKLSCVASGFTFSDYWMNWVRQSPEKGLEWVAQIRNKPYNYETYYSDSVKGRFTISRDDSKSSVYLQMNNLRVEDMGIYYCTGVEYGMDYWGQGTSVTVS chain 2 DVVMTQTPLSLPVSLGDQASISCRSSQSLVHSNGNTYLRWYLQKPGQSPKVLIYKVSNRFSGVPDRFSGSGSGTDFTLKISRVEAEDLGVYFCSQSTHVPWTFGGGTKLEIK [chain 1 S101V Y102E]	≥ 10 µM	0.509
chain 1 EVKLDETGGGLVQPGRPMKLSCVASGFPFKDYWMNWVRQSPEKGLEWVAQIRNKPYNYETYYSDSVKGRFTISRDDSKSSVYLQMNNLRVEDMGIYYCTGSYYGMDYWGQGTSVTVS chain 2 DVVMTQTPLSLPVSLGDQASISCRSSQSLVHSNGNTYLRWYLQKPGQSPKVLIYKVSNRFSGVPDRFSGSGSGTDFTLKISRVEAEDLGVYFCSQSTHVPWTFGGGTKLEIK [chain 1 T28P S30K]	≤ 0.000316 µM	1.02
chain 1 EVKLDETGGGLVQPGRPMKLSCVASGFTISKYWMNWVRQSPEKGLEWVAQIRNKPYNYETYYSDSVKGRFTISRDDSKSSVYLQMNNLRVEDMGIYYCTGSYYGMDYWGQGTSVTVS chain 2 DVVMTQTPLSLPVSLGDQASISCRSSQSLVHSNGNTYLRWYLQKPGQSPKVLIYKVSNRFSGVPDRFSGSGSGTDFTLKISRVEAEDLGVYFCSQSTHVPWTFGGGTKLEIK [chain 1 F29I D31K]	0.00493 µM	0.958
chain 1 EVKLDETGGGLVQPGRPMKLSCVASGFTFSDKWMNWRRQSPEKGLEWVAQIRNKPYNYETYYSDSVKGRFTISRDDSKSSVYLQMNNLRVEDMGIYYCTGSYYGMDYWGQGTSVTVS chain 2 DVVMTQTPLSLPVSLGDQASISCRSSQSLVHSNGNTYLRWYLQKPGQSPKVLIYKVSNRFSGVPDRFSGSGSGTDFTLKISRVEAEDLGVYFCSQSTHVPWTFGGGTKLEIK [chain 1 Y32K V37R]	≥ 10 µM	1.18
chain 1 EVKLDETGGGLVQPGRPMKLSCVASGFTFSDYWMNWVRQSPEKGLEWVAQIRNKPYNYETYYSDSVKGRFTISRDDSKSSVYLQMNNLRVEDMGIYYCTGSGYGMDFKGQGTSVTVS chain 2 DVVMTQTPLSLPVSLGDQASISCRSSQSLVHSNGNTYLRWYLQKPGQSPKVLIYKVSNRFSGVPDRFSGSGSGTDFTLKISRVEAEDLGVYFCSQSTHVPWTFGGGTKLEIK [chain 1 Y102G Y107F W108K]	≥ 10 µM	0.71
chain 1 EVKLDETGGGLVQPGRPMKLSCVASGFTFSDYWMNWVRQSPEKGLEWVAQIRNKPYNYETYYSDSVKGRFTISRDDSKSSVYLQMNNLRVEDMGIYYCTSSYPGMDYWGQGTSVTVS chain 2 DVVMTQTPLSLPVSLGDQASISCRSSQSLVHSNGNTYLRWYLQKPGQSPKVLIYKVSNRFSGVPDRFSGSGSGTDFTLKISRVEAEDLGVYFCSQSTHVPWTFGGGTKLEIK [chain 1 G100S Y103P]	≥ 10 µM	0.689
chain 1 EVKLDETGGGLVQPGRPMKLSCVASGFTFSDYWMNWVRQSPEKGLEWVAQIRNKPYNYETYYSDSVKGRFTISRDDSKSSVYLQMNNLRVEDMGIYYCTGQYLGMGYWGQGTSVTVS chain 2 DVVMTQTPLSLPVSLGDQASISCRSSQSLVHSNGNTYLRWYLQKPGQSPKVLIYKVSNRFSGVPDRFSGSGSGTDFTLKISRVEAEDLGVYFCSQSTHVPWTFGGGTKLEIK [chain 1 S101Q Y103L D106G]	≥ 10 µM	0.41
chain 1 EVKLDETGGGLVQPGRPMKLSCVASGFTFSDYWMNWVRQSPEKGLEWVAQIRNKPYNYETYYSDSVKGRFTISRDDSKSSVYLQMNNLRVEDMGIYYCTTSNYGMDYWGQGTSVTVS chain 2 DVVMTQTPLSLPVSLGDQASISCRSSQSLVHSNGNTYLRWYLQKPGQSPKVLIYKVSNRFSGVPDRFSGSGSGTDFTLKISRVEAEDLGVYFCSQSTHVPWTFGGGTKLEIK [chain 1 G100T Y102N]	≥ 10 µM	0.932
chain 1 EVKLDETGGGLVQPGRPMKLSCVASGFTFHDYCMNWVRQSPEKGLEWVAQIRNKPYNYETYYSDSVKGRFTISRDDSKSSVYLQMNNLRVEDMGIYYCTGSYYGMDYWGQGTSVTVS chain 2 DVVMTQTPLSLPVSLGDQASISCRSSQSLVHSNGNTYLRWYLQKPGQSPKVLIYKVSNRFSGVPDRFSGSGSGTDFTLKISRVEAEDLGVYFCSQSTHVPWTFGGGTKLEIK [chain 1 S30H W33C]	≥ 10 µM	0.61
chain 1 EVKLDETGGGLVQPGRPMKLSCVASGFTFSDYWMNWVRQSPEKGLEWVAQIRNKPYNYETYYSDSVKGRFTISRDDSKSSVYLQMNNLRVEDMGIYYCTGGYYGMDYWGQGTSVTVS chain 2 DVVMTQTPLSLPVSLGDQASISCRSSQSLVHSNGNTYLRWYLQKPGQSPKVLIYKVSNRFSGVPDRFSGSGSGTDFTLKISRVEAEDLGVYFCSQSTHVPWTFGGGTKLEIK [chain 1 S101G]	≥ 10 µM	0.901
chain 1 EVKLDETGGGLVQPGRPMKLSCVASGFTFSDYWMNWVRQSPEKGLEWVAQIRNKPYNYETYYSDSVKGRFTISRDDSKSSVYLQMNNLRVEDMGIYYCTGSYYGFDYLGQGTSVTVS chain 2 DVVMTQTPLSLPVSLGDQASISCRSSQSLVHSNGNTYLRWYLQKPGQSPKVLIYKVSNRFSGVPDRFSGSGSGTDFTLKISRVEAEDLGVYFCSQSTHVPWTFGGGTKLEIK [chain 1 M105F W108L]	0.00175 µM	0.451
chain 1 EVKLDETGGGLVQPGRPMKLSCVASGFTFSDYWFNYVRQSPEKGLEWVAQIRNKPYNYETYYSDSVKGRFTISRDDSKSSVYLQMNNLRVEDMGIYYCTGSYYGMDYWGQGTSVTVS chain 2 DVVMTQTPLSLPVSLGDQASISCRSSQSLVHSNGNTYLRWYLQKPGQSPKVLIYKVSNRFSGVPDRFSGSGSGTDFTLKISRVEAEDLGVYFCSQSTHVPWTFGGGTKLEIK [chain 1 M34F W36Y]	0.00468 µM	0.948
